One substance from paper PMC9547003 can be followed below.

In this assay the target is bacteriophage T7 endonuclease I (C113S, S29C; called wild type in the paper), Cy3-labelled (bacteriophage T7) (UniProt P00641). Briefly: two-step photobleaching of single fluorescent molecules (confocal microscopy with optical tweezers); Cy3-labelled endonuclease I (one dye on each monomer) diffusing on force-stretched dsDNA held between optically trapped beads; 1 nM protein, 25 mM Tris-HCl pH 7.5, 50 mM NaCl, 0.1% BSA, 1 mM CaCl2 or MgCl2.

Turning to “bacteriophage T7 endonuclease I (C113S, S29C; called wild type in the paper), Cy3-labelled (from UniProt P00641 1-149) (enzyme)”, the stoichiometry N was 2.
